Reference: patent publication US20180057542A1 (University of Washington, published 2018)
Changes are numbered by the printed parent chain. Names and notes keep the numbering of the source.

T1: urea-expanded bacteriophage lambda capsid shell (bacteriophage lambda, UniProt P03713 1-341; P03710 23-533)
T1 construct: also called expanded capsid; expanded capsid lattice
T1 sequence 1: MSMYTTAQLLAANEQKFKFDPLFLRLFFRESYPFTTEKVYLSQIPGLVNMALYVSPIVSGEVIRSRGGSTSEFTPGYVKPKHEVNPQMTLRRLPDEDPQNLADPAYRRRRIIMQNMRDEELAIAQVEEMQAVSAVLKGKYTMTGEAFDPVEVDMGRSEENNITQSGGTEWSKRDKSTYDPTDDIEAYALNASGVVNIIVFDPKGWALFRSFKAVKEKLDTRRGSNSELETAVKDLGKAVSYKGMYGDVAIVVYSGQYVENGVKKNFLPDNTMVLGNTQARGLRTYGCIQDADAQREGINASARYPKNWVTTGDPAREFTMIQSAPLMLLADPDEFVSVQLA
T1 sequence 2: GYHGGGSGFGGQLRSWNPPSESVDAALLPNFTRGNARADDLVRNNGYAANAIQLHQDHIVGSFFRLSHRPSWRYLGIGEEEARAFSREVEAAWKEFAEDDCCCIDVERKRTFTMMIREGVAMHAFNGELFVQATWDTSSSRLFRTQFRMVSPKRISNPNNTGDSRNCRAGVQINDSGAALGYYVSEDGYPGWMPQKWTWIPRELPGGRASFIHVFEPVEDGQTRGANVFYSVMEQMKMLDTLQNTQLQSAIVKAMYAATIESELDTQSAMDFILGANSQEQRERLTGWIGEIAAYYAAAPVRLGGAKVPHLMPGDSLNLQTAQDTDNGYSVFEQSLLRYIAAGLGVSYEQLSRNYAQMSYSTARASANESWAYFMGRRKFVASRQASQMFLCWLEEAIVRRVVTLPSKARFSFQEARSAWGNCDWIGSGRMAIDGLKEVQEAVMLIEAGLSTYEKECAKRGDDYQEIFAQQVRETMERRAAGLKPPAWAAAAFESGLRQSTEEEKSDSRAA

B1: gpD(S42C::sMannose) (other)
chain: HHHHHHMTSKETFTHYQPQGNSDPAHTATAPGGLSAKAPAMTPLMLDTCSRKLVAWDGTTDGAAVGILAVAADQTSTTLTFYKSGTFRYEDVLWPEAASDETKKRTAFAGTAISIV
modifications: 6'-maleimidohexanamido-polyethyleneglycol mannoside (sMannose) on Cys42 (numbering without the N-terminal methionine)
notes: The presence of the H6 tag is therefore not certain; also called gpD-mannose; gpD glycoprotein
B2: H6-gpD-GFP (other)
chain: B1 chain with C49S
notes: HIS-tagged fusion of an N-terminal gpD domain and a C-terminal GFP domain; also called gpD-Green Fluorescent Protein; GFP-tagged gpD
B3: wild-type bacteriophage lambda gpD decoration protein (other)
chain: MTSKETFTHYQPQGNSDPAHTATAPGGLSAKAPAMTPLMLDTSSRKLVAWDGTTDGAAVGILAVAADQTSTTLTFYKSGTFRYEDVLWPEAASDETKKRTAFAGTAISIV
notes: Monomer in solution; adds to the expanded capsid as trimer spikes at the 140 three-fold axes (420 copies per shell); also called gpD-WT; gpD-wt
B4: gpD(S42C) (other)
chain: B3 chain with S43C

Assays:
[1] = target: T1, urea-expanded bacteriophage lambda …; test: in vitro capsid decoration, SDS-PAGE of isolated decorated capsids
[2] = target: T1, urea-expanded bacteriophage lambda …; test: SDS-PAGE of capsids decorated with gpD-WT alone and separated from unreacted protein
[3] = target: T2, Concanavalin A (UniProt P02866 30-281); test: agglutination assay (absorbance at 350 nm) of decorated capsids with Concanavalin A
T2 construct: Used at 1 uM in the agglutination assay; It recognises the mannose conjugated to gpD(S42C); also called Con A; ConA

Row | Binder | Surface Density (% relative to gpD) [1] | ratio of major capsid protein (gpE) to gpD-WT in the decorated particles [2] | binding result [3]
1 | B1 | 82 % relative to gpD | – | –
2 | B2 | 77 % relative to gpD | – | –
3 | B3 | 100 % relative to gpD | ~1 ratio gpE:gpD-WT | no binding (tested: 1 µM ConA, 1 µM gpD equivalent)
4 | B4 | 90 % relative to gpD | – | no binding (tested: 1 µM ConA, 1 µM gpD equivalent)
